Data reported in patent US11110182B2, “Multifunctional RNA nanoparticles and methods for treating cancer and therapeutic resistant cancer” (University of Cincinnati, priority 2016, dated 2021).

System: BT474 orthotopic xenograft tumors
Experiment: In vivo targeting and biodistribution imaging of AF647-labeled nanoparticles
Parameters: species or system mice
Details: for signals in liver and kidney, biodistribution: AF647 fluorescence of excised organs; for accumulation in the xenograft tumors, biodistribution of excised organs and tumors: AF647 fluorescence of excised tumors; for localization in frozen tumor sections (penetration to tumor cells): confocal microscopy, microvessels stained with anti-CD31
Experimental: FIG. 2A) Confocal microscopy analyses of the internalization of AF647-labeled control and pRNA-HER2apt-siMED1 nanoparticles by BT474 cells. Scale bar: 10 μm. FIG. 2B) Flow cytometry assays of the cellular uptake of AF647-labeled control and pRNA-HER2apt-siMED1 nanoparticles by BT474 cells. FIG. 2C) IVIS Lumina live imaging of BT474 orthotopic xenograft mice 24 hrs after i.v. injection of indicated AF647-labeled pRNA nanoparticles (10 mg/Kg). FIG. 2D) Major organs and tumors of above mice were excised and imaged for AF647 fluorescence. FIG. 2E) Frozen tumor sections were examined for localization of AF647-labeled pRNA nanoparticles (red) using confocal microscopy. The blood vessels were stained with anti-CD31 primary antibody and Alexa488-conjugated secondary antibody (green). The nuclei were stained with DAPI (blue). Scale bar: 50 μm. FIG. 2F) The fluorescence intensity of AF647-labeled pRNA nanoparticles (red) in frozen tumor sections was quantified with Image-pro Plus software.
Migration and metastasis assay. The 8-μm-pore-size polycarbonate membrane, which separates the two chambers of a 6.5-mm Transwell (Costar), was coated with or without 1:8 DMEM-diluted Matrigel (Corning). Transwell assay was performed as previously described.^57 Briefly, BT474 cells were treated with pRNAs alone or together with 4-hydroxy-tamoxifen (4-OHT) for 48 h and starved with serum-free DMEM containing 0.2% BSA overnight. On the next day, cells were collected and 2×10^5 cells were seeded to the upper chamber of Transwell. The lower chamber was filled with 600 μL DMEM medium containing 10% FBS. After incubation at 37° C. for 24 h, cells on the membranes were fixed and stained with 0.1% crystal violet in 20% ethanol solution. Cells at top side of membranes were removed completely, and cells at the bottom side were examined with an Olympus SZX12 microscope and counted. • Mammosphere culture and breast cancer stem cell analyses. BT474 cells were treated with pRNAs for 48 h. Then, cells were suspended in DMEM/F12 medium supplemented with 1×B27 (Thermo Fisher), 20 ng/mL bFGF and 20 ng/mL EGF (R&D), and added into 24-well ultralow attachment plates. After treatment with or without 1 μM 4-OHT for 7 days, mammosphere formation was recorded using an Axiovert S100 TV inverted microscope (Zeiss). Xenograft tumor tissues were cut into small pieces and digested with trypsin and collagenase at 37° C. for 1 h, and tumor cells were collected and rinsed with pre-cold PBS. All cells were stained with FITC-conjugated anti-CD44 antibody and PE-conjugated anti-CD24 antibody (BD Pharmingen) in the dark on ice for 30 min. After resuspension with 0.5 mL PBS buffer, CD44^+/CD24^−/low cell population was analyzed by flow cytometry. • Orthotopic xenograft breast tumor mouse model, in vivo imaging and anti-tumor therapy. Six-week-old female athymic nude mice were purchased from Charles River Laboratories, and all animal procedures were performed under IACUC-approved protocols at the University of Cincinnati. Athymic nude mice were orthotopically injected with 1×10^7 BT474-luc cells mixed with matrigel into the fat pads of the forth pair of mammary glands. When the tumor sizes reached 100-150 mm^3, the mice were randomly divided into four groups (4/group) and intravenously (i.v.) injected with pRNAs (4 mg/Kg) once a week for three weeks. For tamoxifen treatments, 0.5 mg tamoxifen (Sigma) dissolved in sesame oil was intraperitoneally (i.p.) injected into mice 5 days a week for three weeks. The tumor volume was monitored every 3 days, and tumor size was calculated using the formula: volume=0.5×(width)^2×(length). For in vivo pRNA nanoparticle targeting and tumor imaging, mice were i.v. injected with AF647-conjugated pRNA nanoparticles or i.p. injected with D-luciferin and imaged using the IVIS Lumina imaging system with Living Images 3.0 software (Caliper Life Sciences). […]

Molecule | accumulation in the area of the xenograft tumor, live animal imaging (AF647-conjugated, 10 mg/Kg i.v., 24 hrs) | signals in liver and kidney, biodistribution | accumulation in the xenograft tumors, biodistribution of excised organs and tumors | localization in frozen tumor sections (penetration to tumor cells)
pRNA-HER2apt-siMED1: 3-WJ pRNA nanoparticle bearing a HER2-targeting RNA aptamer and two different MED1 siRNAs; strands p1 SEQ ID NO: 3, p2 SEQ ID NO: 4 (nucleic acid, 2'-F modification; third strand may lack entry; pRNA-HER2apt-siMED1, p1; pRNA-HER2apt-siMED1, p2) chain 1: GGACAGUGAAAGUGAGUCAAAGGAUCAAUCAUGGCCAAAGAUGUUACUUUGAGAGCCUU chain 2: GGCUCUCAAAGUAACAUCUAAGGCCAUGUGUAUGUGGGGGGAGGACGAUGCGGUCUGCUGUGCUUGAUAUGCCCCAGACGACUCGCCCCCCACAUACUUUGUUGAUCCAAUGACUCACUUUCACUGUCCUU | strongly accumulated | low levels of residual signals | predominant accumulation | very effectively penetrated to tumor cells
pRNA-HER2apt^mut-siMED1: control pRNA nanoparticle with mutant HER2 aptamer; strands p1 SEQ ID NO: 5, p2 SEQ ID NO: 6 (nucleic acid, pRNA-HER2apt(mut)-siMED1, p1; pRNA-HER2apt(mut)-siMED1, p2) chain 1: GGACAGUGAAAGUGAGUCAAAGGAUCAAUCAUGGCCAAAGAUGUUACUUUGAGAGCCUU chain 2: GGCUCUCAAAGUAACAUCUAAGGCCAUGUGUAUGUGGGAUGAGGAGUAUGAAGAUACCUGUACUUGAUAUGCCCCAGACGACAUUCCCCCCACAUACUUUGUUGAUCCAAUGACUCACUUUCACUGUCCUU | – | low levels of residual signals | not | remained in the microvessels
